IC50 (read off the curve) and Apparent Diffusion Coefficient (D) data for one molecule are collected here from US9120862.

The target of experiment [1] is monoclonal antibody 3C10 (produced by hybridoma cell line ATCC deposit designation PTA-9638). The experiment can be described thus: FCS competition: 2 nM Alexa488-PIVKA-II (13-27) tracer + 10 nM mAb 3C10, competitor titrated; apparent diffusion coefficient of the tracer.
The target is the same in experiment [2]. The experiment can be described thus: FCS competition: 2 nM Alexa488-PIVKA-II (13-27) premixed with 10 nM mAb 3C10, unlabelled PIVKA-II (13-27) added, overnight; D of the tracer (high D = tracer displaced).

Bridge positions count the residues as written; N and C are the ends. Ends that are not written are not given here.

In the case of LERECVEETCSYEEA (disulfide 5-10 (inferred)) [PIVKA-II (13-27) peptide, unlabelled (positive control competitor)], the IC50 (read off the curve) in experiment [1] is 50 nM. Moreover, the Apparent Diffusion Coefficient (D) in experiment [2] worked out at 174 um^2/sec.
